Experimental data taken from patent US12209135B2, “Anti-CD45 antibodies and conjugates thereof” (priority 2019, dated 2025).
Positions count from the first letter of the chain named.

B1: Ab5: variant of Ab4 with asparagine to serine substitution in CDR-L1; VH SEQ ID NO:41, VL SEQ ID NO:45 (antibody, V domains shown)
VH: EVQLVESGGGLVQPGGSLRLSCAASGFTFEAYSMNWVRQAPGKGLEWVSYISLSGATIHYADSVKGRFTISRDNAKNSLYLQMNSLRAEDTAVYYCARGGQYYYTSSDYGEVAFDIWGQGTMVTVSS
VL: DIVMTQSPLSLPVTPGEPASISCRSSQSLVSSGYNYLDWYLQKPGQSPQLLIYFGSSRASGVPDRFSGSGSGTDFTLKISRVEAEDVGVYYCMQRRRTPWSFGGGTKVEIK
B2: Ab7: variant of Ab3 with asparagine to serine substitution in CDR-L1; VH SEQ ID NO:61, VL SEQ ID NO:65 (antibody, V domains shown)
VH: B1 VH with E1Q, Q13K, E30G, A31G, L53I, H59T, T105D
VL: DIVMTQSPLSLPVTPGEPASISCRSSQSLVSSGYNYLDWYLQKPGQSPQLLIYFGSSRASGVPDRFSGSGSGTDFTLKISRVEAEDVGVYYCMQRRRTPPFTFGGGTKVEIK
B3: Ab3: affinity matured human anti-CD45 IgG derived from Ab1; VH SEQ ID NO:21, VL SEQ ID NO:25 (antibody, V domains shown)
VH: B1 VH with E1Q, Q13K, E30G, A31G, L53I, H59T, T105D
VL: B2 VL with S32N
B4: Ab2: affinity matured human anti-CD45 IgG derived from Ab1; VH SEQ ID NO:11, VL SEQ ID NO:15 (antibody, V domains shown)
VH: B1 VH with T105D
VL: B1 VL with S32N
B5: Ab6: affinity matured human anti-CD45 IgG derived from Ab1; VH SEQ ID NO:51, VL SEQ ID NO:55 (antibody, V domains shown)
VH: B1 VH with M122L
VL: B1 VL with M4L
B6: AbA: humanized and affinity matured variant of parent clone A; VH SEQ ID NO:71, VL SEQ ID NO:75 (antibody, V domains shown)
VH: EVQLLESGGGLVQPGGSLRLSCAASGFTFNNYWMTWVRQAPGKGLEWVSSISSSGGSIYYPDRVKGRFTISRDNSKNTLYLQMNSLRAEDTAVYYCARDERWAGAMDAWGQGTTVTVSS
VL: DIQMTQSPSSLSASVGDRVTITCKASQNINKNLDWYQQKPGKAPKLLIYETNNLQTGVPSRFSGSGSGTDFTLTISSLQPEDFATYYCYQHNSRFTFGQGTKLEIK
B7: AbC: affinity matured variant of parent clone C; VH SEQ ID NO:91, VL SEQ ID NO:95 (antibody, V domains shown)
VH: EVQLVESGGGLVQPGGSLRLSCAASGFTFNNYWMTWVRQAPGKGLEWVSSISSSGGSIYYPDSVKDRFTISRDNAKNSLYLQMNSLRAEDMAVYYCARLYYYDGGGDAWGQGTLVTVSS
VL: GIQMTQSPSSLSASVGDRVTITCKASQDINKYLDWYQQKPGKAPKLLIYNTNNLHTGIPSRFSGSGSGTDYTLTISSLQPEDFATYYCLQHISRWTFGGGTKVEIK
B8: AbB: affinity matured variant of parent clone B; VH SEQ ID NO:81, VL SEQ ID NO:85 (antibody, V domains shown)
VH: EVQLVESGGGLVQPGGSLRLSCAASGFTFTNFWMAWIRQAPGKGLEWVASISSSGGSIYYPDSVKDRFTISRDNSKNTLYLQMNSLRAEDTAVYYCVKFHHYSGGGDAWGQGTLVTVSS
VL: B7 VL with G1D, D28N, Y49H, N50Y, I92S

Biological target: T1, human CD45 ectodomain (Homo sapiens, UniProt P08575)
T1 construct: purified human, rhesus or cynomolgus CD45 ectodomain
T1 sequence (P08575 26-577): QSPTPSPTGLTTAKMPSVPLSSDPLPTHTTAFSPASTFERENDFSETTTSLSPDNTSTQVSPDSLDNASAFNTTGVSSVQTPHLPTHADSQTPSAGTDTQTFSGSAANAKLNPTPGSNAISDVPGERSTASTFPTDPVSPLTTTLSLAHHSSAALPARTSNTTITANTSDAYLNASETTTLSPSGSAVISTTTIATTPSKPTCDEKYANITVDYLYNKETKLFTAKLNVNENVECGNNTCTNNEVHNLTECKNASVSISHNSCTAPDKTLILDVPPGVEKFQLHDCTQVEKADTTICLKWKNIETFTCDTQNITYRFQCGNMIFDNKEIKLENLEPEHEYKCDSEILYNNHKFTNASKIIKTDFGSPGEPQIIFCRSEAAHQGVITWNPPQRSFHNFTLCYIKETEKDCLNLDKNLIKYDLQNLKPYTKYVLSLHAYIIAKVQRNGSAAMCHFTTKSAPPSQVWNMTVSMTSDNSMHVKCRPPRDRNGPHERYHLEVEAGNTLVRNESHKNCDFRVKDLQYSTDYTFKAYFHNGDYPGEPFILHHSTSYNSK
Assay: Biolayer interferometry (BLI, Octet) binding of immobilized IgG to purified CD45 ectodomain
Conditions: BLI / Octet
Experimental: (§1) Antibody binding studies were performed at 25° C. in 1×PBS supplemented with 0.1% w/v bovine serum albumin with a Pall ForteBio Octet Red96 using biolayer interferometry (BLI).
(§2) The apparent monovalent affinity (KD), apparent association rate (KON), and apparent dissociation rate (KOFF) were determined by local full fitting with a 1:1 binding model as calculated by ForteBio data analysis software version 10 of each IgG to purified human, cynomolgus or rhesus CD45 ectodomain. […] Binding was confirmed using
Briefly, antibody binding studies were performed at 25° C. in 1×PBS supplemented with 0.1% w/v bovine serum albumin with a PALL FORTEBIO OCTET RED96 using biolayer interferometry (BLI). Each purified antibody was immobilized onto anti-human Fc biosensors (AHQ; PALL FORTEBIO 18-5001) and incubated with 100 nM of purified human or 300 nM of cynomolgus CD45 ectodomain.
(§3) The apparent monovalent affinity (KD), apparent association rate (KON), and apparent dissociation rate (KDIS or KOFF) were determined by local full fitting with a 1:1 binding model as calculated by FORTEBIO data analysis software version 10. […] Each of the selected humanized antibodies AbA, AbB, and AbC was able to cross react with human and cynomolgus CD45.

| Molecule | CD45 binding compared with parent (qualitative) |
| --- | --- |
| B1 | did not alter CD45 binding |
| B2 | did not alter CD45 binding |

Same assay, conditions: Table 2, Human CD45

| Molecule | Kdis | Kon |
| --- | --- | --- |
| B3 | 0.000225 s⁻¹ | 260000 M⁻¹ s⁻¹ |
| B1 | 3.36e-05 s⁻¹ | 233000 M⁻¹ s⁻¹ |
| B4 | 2.8e-05 s⁻¹ | 245000 M⁻¹ s⁻¹ |
| B5 | 1.73e-05 s⁻¹ | 242000 M⁻¹ s⁻¹ |
| B2 | 0.000615 s⁻¹ | 264000 M⁻¹ s⁻¹ |

Same assay, conditions: Table 11, Human CD45

| Molecule | KON | Kdis |
| --- | --- | --- |
| B6 | 50300 M⁻¹ s⁻¹ | 0.000181 s⁻¹ |
| B7 | 50800 M⁻¹ s⁻¹ | 0.000149 s⁻¹ |
| B8 | 43800 M⁻¹ s⁻¹ | 0.000239 s⁻¹ |

Same assay, conditions: text b859

| Molecule | improved affinity over the parent clone |
| --- | --- |
| B7 | greater than 4 fold |

Tested on: cynomolgus CD45 ectodomain
Sequence (as listed by the source): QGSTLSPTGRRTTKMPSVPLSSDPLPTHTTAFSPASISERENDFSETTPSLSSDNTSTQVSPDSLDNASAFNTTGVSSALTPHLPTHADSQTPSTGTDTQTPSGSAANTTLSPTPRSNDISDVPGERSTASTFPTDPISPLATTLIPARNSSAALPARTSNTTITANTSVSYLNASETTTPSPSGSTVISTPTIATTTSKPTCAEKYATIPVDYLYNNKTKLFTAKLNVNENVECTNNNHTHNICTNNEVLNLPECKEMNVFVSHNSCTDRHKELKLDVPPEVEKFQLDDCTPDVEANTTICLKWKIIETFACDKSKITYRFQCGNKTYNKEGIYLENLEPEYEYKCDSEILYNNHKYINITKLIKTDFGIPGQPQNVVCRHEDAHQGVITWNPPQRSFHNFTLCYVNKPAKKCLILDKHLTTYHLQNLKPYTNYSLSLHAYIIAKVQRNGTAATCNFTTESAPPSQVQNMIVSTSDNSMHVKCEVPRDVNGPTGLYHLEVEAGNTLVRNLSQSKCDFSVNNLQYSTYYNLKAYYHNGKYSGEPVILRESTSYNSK
Assay: as above
Conditions: Table 2, Cynomolgus CD45
Experimental: as §1, §2
Briefly, antibody binding studies were performed at 25° C. in 1×PBS supplemented with 0.1% w/v bovine serum albumin with a PALL FORTEBIO OCTET RED96 using biolayer interferometry (BLI). […]
as §3

| Molecule | Kdis | Kon |
| --- | --- | --- |
| B3 | 0.000192 s⁻¹ | 120000 M⁻¹ s⁻¹ |
| B1 | 0.000164 s⁻¹ | 117000 M⁻¹ s⁻¹ |
| B4 | 0.000129 s⁻¹ | 119000 M⁻¹ s⁻¹ |
| B5 | 0.000154 s⁻¹ | 118000 M⁻¹ s⁻¹ |
| B2 | 0.000537 s⁻¹ | 127000 M⁻¹ s⁻¹ |

Same assay, conditions: Table 2, Cynomolgus CD45; 50 nM antigen (Ab1: 300 nM)

| Molecule | Kd |
| --- | --- |
| B3 | 1.61 nM |
| B4 | 1.08 nM |
| B5 | 1.3 nM |
| B2 | 4.24 nM |

Same assay, conditions: Table 11, Cyno CD45

| Molecule | KON | Kdis |
| --- | --- | --- |
| B6 | 9440 M⁻¹ s⁻¹ | 0.000322 s⁻¹ |
| B7 | 11100 M⁻¹ s⁻¹ | 0.000282 s⁻¹ |
| B8 | 8160 M⁻¹ s⁻¹ | 0.00042 s⁻¹ |

Same assay, conditions: Table 11, Cyno CD45; 300 nM antigen

| Molecule | Kd |
| --- | --- |
| B6 | 34.1 nM |
| B7 | 25.3 nM |
| B8 | 51.5 nM |

Biological target: T2, rhesus CD45 ectodomain (Macaca mulatta, UniProt A0A1D5R142)
T2 construct: purified human, rhesus or cynomolgus CD45 ectodomain
T2 sequence (A0A1D5R142 26-581): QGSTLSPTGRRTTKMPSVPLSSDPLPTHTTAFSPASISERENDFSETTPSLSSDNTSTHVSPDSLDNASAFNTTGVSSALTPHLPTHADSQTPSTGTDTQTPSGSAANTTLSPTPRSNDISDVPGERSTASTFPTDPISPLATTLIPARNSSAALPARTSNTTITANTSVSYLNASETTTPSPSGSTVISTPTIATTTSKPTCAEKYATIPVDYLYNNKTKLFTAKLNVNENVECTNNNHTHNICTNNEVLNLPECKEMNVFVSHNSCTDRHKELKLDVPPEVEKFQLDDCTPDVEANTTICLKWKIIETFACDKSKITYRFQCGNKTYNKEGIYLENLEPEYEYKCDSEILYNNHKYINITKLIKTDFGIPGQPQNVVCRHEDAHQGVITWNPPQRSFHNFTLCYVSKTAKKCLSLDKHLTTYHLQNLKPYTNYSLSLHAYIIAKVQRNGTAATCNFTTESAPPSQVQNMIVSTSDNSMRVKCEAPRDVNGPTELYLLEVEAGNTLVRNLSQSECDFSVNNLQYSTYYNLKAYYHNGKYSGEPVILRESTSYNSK
Assay: as above
Conditions: Table 2, Rhesus CD45
Experimental: as §1
as §2, with “using […]” for “using”

| Molecule | Kdis | Kon |
| --- | --- | --- |
| B3 | 0.000222 s⁻¹ | 135000 M⁻¹ s⁻¹ |
| B1 | 0.000193 s⁻¹ | 113000 M⁻¹ s⁻¹ |
| B4 | 0.000192 s⁻¹ | 135000 M⁻¹ s⁻¹ |
| B5 | 0.000175 s⁻¹ | 122000 M⁻¹ s⁻¹ |
| B2 | 0.000544 s⁻¹ | 124000 M⁻¹ s⁻¹ |

Same assay, conditions: Table 2, Rhesus CD45; 50 nM antigen (Ab1: 300 nM)

| Molecule | Kd |
| --- | --- |
| B3 | 1.65 nM |
| B1 | 1.71 nM |
| B4 | 1.42 nM |
| B5 | 1.44 nM |
| B2 | 4.39 nM |

Tested on: not listed separately
Assay: Two-week thermal / pH stress stability by HIC and peptide mapping
Type: physicochemical
Conditions: 4° C., 25° C., 40° C. for 15 days; high pH treatment
Experimental: A two-week stability assay was performed by incubating Ab3 and Ab4 at 4° C., 25° C., and 40° C. for 15 days, after which the antibodies were analyzed by […] (HIC). Briefly, 25 micrograms of the indicated antibody were injected onto a Tosoh TSKgel Phenyl-5PW 7.5 mm ID×7.5 cm 10-micron column (Catalog #07573) on a Waters ARC HPLC/UPLC system. […] This hydrophilic pre-peak was indicative of a potential site of post-translational modification (e.g., oxidation or deamidation). Peptide mapping was subsequently performed to identify which amino acids were modified in each antibody upon exposure to stress (high pH, low pH, and oxidative stress). The peptide mapping analysis identified a potential site of deamidation at an asparagine in CDR-L1 (N30 position) in response to high pH conditions (e.g., pH 8 or greater).
Accordingly, variants of Ab3 and Ab4 were generated in which the asparagine in CDR-L1 (e.g., at position 30B) was substituted with a serine. The resulting antibodies were named Ab7 and Ab5 respectively.

| Molecule | HIC hydrophilic pre-peak (deamidated species) |
| --- | --- |
| B3 | hydrophilic pre-peak that increased as a function of thermal stress |
